Blank lines part the entries; values can stand above or below the binder they belong to. Starred links: 1 amine or outer side, 2 acyl side, 3 side chain; linkers in the order of their positions; H or OH if unused. Groups on a side chain read outwards from the residue. *: point of attachment. γGlu = O=C(O)[C@H](CCC(=O)[*:2])N[*:1]; Palmitoyl = CCCCCCCCCCCCCCCC(=O)*
What was measured:
[1] = biological target: human glucagon receptor (Glucagon-R) (human, UniProt P47871 26-477); experiment: cell-based or functional assay
[2] = biological target: human glucagon-like peptide 1 receptor (GLP-1 R) (human, UniProt P43220 24-463); experiment: cell-based or functional assay

Sequence of human glucagon receptor (Glucagon-R) (P47871 26-477): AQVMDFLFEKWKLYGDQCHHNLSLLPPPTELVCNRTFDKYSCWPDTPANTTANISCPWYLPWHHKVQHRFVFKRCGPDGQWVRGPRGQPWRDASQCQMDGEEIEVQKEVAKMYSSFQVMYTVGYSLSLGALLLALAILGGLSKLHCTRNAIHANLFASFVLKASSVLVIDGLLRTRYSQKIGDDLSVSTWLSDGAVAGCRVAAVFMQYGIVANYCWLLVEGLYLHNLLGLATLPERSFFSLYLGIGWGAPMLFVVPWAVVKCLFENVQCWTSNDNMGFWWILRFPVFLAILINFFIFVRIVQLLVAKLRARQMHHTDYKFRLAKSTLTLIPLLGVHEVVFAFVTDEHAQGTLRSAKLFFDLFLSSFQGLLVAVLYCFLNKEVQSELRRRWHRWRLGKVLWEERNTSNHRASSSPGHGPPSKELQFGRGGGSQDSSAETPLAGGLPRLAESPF

B1: Compound 2: H-HSQGTFTSDYSKYLDERRAKDFIEWL-K(Hexadecanoyl-isoGlu)-SA-NH2 (peptide)
peptide: HSQGTFTSDYSKYLDERRAKDFIEWLXSA
HELM: PEPTIDE1{H.S.Q.G.T.F.T.S.D.Y.S.K.Y.L.D.E.R.R.A.K.D.F.I.E.W.L.K.S.A.[am]}|PEPTIDE2{[CCCCCCCCCCCCCCCC(=O)[*:2]].[gGlu]}$PEPTIDE1,PEPTIDE2,27:R3-2:R2$$$V2.0
SMILES: CCCCCCCCCCCCCCCC(=O)N[C@@H](CCC(=O)NCCCC[C@H](NC(=O)[C@H](CC(C)C)NC(=O)[C@H](Cc1c[nH]c2ccccc12)NC(=O)[C@H](CCC(=O)O)NC(=O)[C@@H](NC(=O)[C@H](Cc1ccccc1)NC(=O)[C@H](CC(=O)O)NC(=O)[C@H](CCCCN)NC(=O)[C@H](C)NC(=O)[C@H](CCCNC(=N)N)NC(=O)[C@H](CCCNC(=N)N)NC(=O)[C@H](CCC(=O)O)NC(=O)[C@H](CC(=O)O)NC(=O)[C@H](CC(C)C)NC(=O)[C@H](Cc1ccc(O)cc1)NC(=O)[C@H](CCCCN)NC(=O)[C@H](CO)NC(=O)[C@H](Cc1ccc(O)cc1)NC(=O)[C@H](CC(=O)O)NC(=O)[C@H](CO)NC(=O)[C@@H](NC(=O)[C@H](Cc1ccccc1)NC(=O)[C@@H](NC(=O)CNC(=O)[C@H](CCC(N)=O)NC(=O)[C@H](CO)NC(=O)[C@@H](N)Cc1c[nH]cn1)[C@@H](C)O)[C@@H](C)O)[C@@H](C)CC)C(=O)N[C@@H](CO)C(=O)N[C@@H](C)C(N)=O)C(=O)O
GluR EC50 (nM), cAMP formation in HEK293 cells expressing human Glucagon-R [1]: 0.81 nM
GLP-1R EC50 (nM), cAMP formation in HEK293 cells expressing human GLP-1-R [2]: 3.09 nM

B4: Compound 3: H-HSQGTFTSDYSKYLDERRA-K(Hexadecanoyl-isoGlu)-DFIEWLLSA-NH2 (peptide)
peptide: HSQGTFTSDYSKYLDERRAXDFIEWLLSA
modifications: K(Hexadecanoyl-isoGlu) at position 20; C-terminal amide (NH2)
GluR EC50 (nM), cAMP formation in HEK293 cells expressing human Glucagon-R [1]: 0.6 nM
GLP-1R EC50 (nM), cAMP formation in HEK293 cells expressing human GLP-1-R [2]: 0.64 nM

B5: Compound 4: H-HSQGTFTSDYSKYLDERRAKDFIEWLL-K(Hexadecanoyl-isoGlu)-A-NH2 (peptide)
peptide: HSQGTFTSDYSKYLDERRAKDFIEWLLXA
HELM: PEPTIDE1{H.S.Q.G.T.F.T.S.D.Y.S.K.Y.L.D.E.R.R.A.K.D.F.I.E.W.L.L.K.A.[am]}|PEPTIDE2{[CCCCCCCCCCCCCCCC(=O)[*:2]].[gGlu]}$PEPTIDE1,PEPTIDE2,28:R3-2:R2$$$V2.0
SMILES: CCCCCCCCCCCCCCCC(=O)N[C@@H](CCC(=O)NCCCC[C@H](NC(=O)[C@H](CC(C)C)NC(=O)[C@H](CC(C)C)NC(=O)[C@H](Cc1c[nH]c2ccccc12)NC(=O)[C@H](CCC(=O)O)NC(=O)[C@@H](NC(=O)[C@H](Cc1ccccc1)NC(=O)[C@H](CC(=O)O)NC(=O)[C@H](CCCCN)NC(=O)[C@H](C)NC(=O)[C@H](CCCNC(=N)N)NC(=O)[C@H](CCCNC(=N)N)NC(=O)[C@H](CCC(=O)O)NC(=O)[C@H](CC(=O)O)NC(=O)[C@H](CC(C)C)NC(=O)[C@H](Cc1ccc(O)cc1)NC(=O)[C@H](CCCCN)NC(=O)[C@H](CO)NC(=O)[C@H](Cc1ccc(O)cc1)NC(=O)[C@H](CC(=O)O)NC(=O)[C@H](CO)NC(=O)[C@@H](NC(=O)[C@H](Cc1ccccc1)NC(=O)[C@@H](NC(=O)CNC(=O)[C@H](CCC(N)=O)NC(=O)[C@H](CO)NC(=O)[C@@H](N)Cc1c[nH]cn1)[C@@H](C)O)[C@@H](C)O)[C@@H](C)CC)C(=O)N[C@@H](C)C(N)=O)C(=O)O
GluR EC50 (nM), cAMP formation in HEK293 cells expressing human Glucagon-R [1]: 0.25 nM
GLP-1R EC50 (nM), cAMP formation in HEK293 cells expressing human GLP-1-R [2]: 0.31 nM

Other lines, results leading:

GluR EC50 (nM), cAMP formation in HEK293 cells expressing human Glucagon-R [1]: 0.16 nM
GLP-1R EC50 (nM), cAMP formation in HEK293 cells expressing human GLP-1-R [2]: 0.1 nM
B2: Compound 7: H-H-Aib-QGTFTSDYSKYLDE-K(Hexadecanoyl-isoGlu)-RAKDFIEWLLSA-NH2 (peptide)
peptide: HXQGTFTSDYSKYLDEXRAKDFIEWLLSA
HELM: PEPTIDE1{H.[Aib].Q.G.T.F.T.S.D.Y.S.K.Y.L.D.E.K.R.A.K.D.F.I.E.W.L.L.S.A.[am]}|PEPTIDE2{[CCCCCCCCCCCCCCCC(=O)[*:2]].[gGlu]}$PEPTIDE1,PEPTIDE2,17:R3-2:R2$$$V2.0
SMILES: CCCCCCCCCCCCCCCC(=O)N[C@@H](CCC(=O)NCCCC[C@H](NC(=O)[C@H](CCC(=O)O)NC(=O)[C@H](CC(=O)O)NC(=O)[C@H](CC(C)C)NC(=O)[C@H](Cc1ccc(O)cc1)NC(=O)[C@H](CCCCN)NC(=O)[C@H](CO)NC(=O)[C@H](Cc1ccc(O)cc1)NC(=O)[C@H](CC(=O)O)NC(=O)[C@H](CO)NC(=O)[C@@H](NC(=O)[C@H](Cc1ccccc1)NC(=O)[C@@H](NC(=O)CNC(=O)[C@H](CCC(N)=O)NC(=O)C(C)(C)NC(=O)[C@@H](N)Cc1c[nH]cn1)[C@@H](C)O)[C@@H](C)O)C(=O)N[C@@H](CCCNC(=N)N)C(=O)N[C@@H](C)C(=O)N[C@@H](CCCCN)C(=O)N[C@@H](CC(=O)O)C(=O)N[C@@H](Cc1ccccc1)C(=O)N[C@H](C(=O)N[C@@H](CCC(=O)O)C(=O)N[C@@H](Cc1c[nH]c2ccccc12)C(=O)N[C@@H](CC(C)C)C(=O)N[C@@H](CC(C)C)C(=O)N[C@@H](CO)C(=O)N[C@@H](C)C(N)=O)[C@@H](C)CC)C(=O)O

GLP-1R EC50 (nM), cAMP formation in HEK293 cells expressing human GLP-1-R [2]: 0.13 nM
B3: Compound 6: H-HSQGTFTSDYSKYLDE-K(Hexadecanoyl-isoGlu)-RAKDFIEWLLSA-NH2 (peptide)
peptide: H-HSQGTFTSDYSKYLDEK([γGlu-Palmitoyl])RAKDFIEWLLSA-NH2

GluR EC50 (nM), cAMP formation in HEK293 cells expressing human Glucagon-R [1]: 0.19 nM
GLP-1R EC50 (nM), cAMP formation in HEK293 cells expressing human GLP-1-R [2]: 0.35 nM
B6: Compound 5: H-HSQGTFTSDYSKYLD-K(Hexadecanoyl-isoGlu)-RRAKDFIEWLLSA-NH2 (peptide)
peptide: HSQGTFTSDYSKYLDXRRAKDFIEWLLSA
HELM: PEPTIDE1{H.S.Q.G.T.F.T.S.D.Y.S.K.Y.L.D.K.R.R.A.K.D.F.I.E.W.L.L.S.A.[am]}|PEPTIDE2{[CCCCCCCCCCCCCCCC(=O)[*:2]].[gGlu]}$PEPTIDE1,PEPTIDE2,16:R3-2:R2$$$V2.0
SMILES: CCCCCCCCCCCCCCCC(=O)N[C@@H](CCC(=O)NCCCC[C@H](NC(=O)[C@H](CC(=O)O)NC(=O)[C@H](CC(C)C)NC(=O)[C@H](Cc1ccc(O)cc1)NC(=O)[C@H](CCCCN)NC(=O)[C@H](CO)NC(=O)[C@H](Cc1ccc(O)cc1)NC(=O)[C@H](CC(=O)O)NC(=O)[C@H](CO)NC(=O)[C@@H](NC(=O)[C@H](Cc1ccccc1)NC(=O)[C@@H](NC(=O)CNC(=O)[C@H](CCC(N)=O)NC(=O)[C@H](CO)NC(=O)[C@@H](N)Cc1c[nH]cn1)[C@@H](C)O)[C@@H](C)O)C(=O)N[C@@H](CCCNC(=N)N)C(=O)N[C@@H](CCCNC(=N)N)C(=O)N[C@@H](C)C(=O)N[C@@H](CCCCN)C(=O)N[C@@H](CC(=O)O)C(=O)N[C@@H](Cc1ccccc1)C(=O)N[C@H](C(=O)N[C@@H](CCC(=O)O)C(=O)N[C@@H](Cc1c[nH]c2ccccc12)C(=O)N[C@@H](CC(C)C)C(=O)N[C@@H](CC(C)C)C(=O)N[C@@H](CO)C(=O)N[C@@H](C)C(N)=O)[C@@H](C)CC)C(=O)O

Source: US20130157935A1 (ZEALAND PHARMA A S, published 2013)
